Test results: patent US20170137466A1 (UNIVERSITY OF SOUTHAMPTON, published 2017)

Target: T1, HLA-Cw*0102
T1 construct: whole, on cells; MHC class I molecule on cells, as the partner that takes up the peptide; also called cell surface MHC class I of L721.174 cells
Assay: MHC class I stabilisation on L721.174 cells with increasing peptide, flow cytometry
Text: Cells were stained for cell surface of MHC class I and analysed by flow cytometry. The mean fluorescence intensity of cell surface MHC Class I was plotted against the peptide concentration.
3×10⁵ cells were used per condition. Following washing in PBS the cells were stained for cell surface of MHC class I and analysed by flow cytometry. The mean fluorescence intensity of cell surface MHC Class I was plotted against the peptide concentration.

Q: Does LNPSVAATL [peptide LNPSVAATL (SEQ ID NO: 1)] bind?
A: binds
